Test results published in patent US8030043B2, “β-galactoside-α2,3-sialyltransferase, a gene encoding thereof, and a method for producing thereof” (Japan Tobacco Inc., priority 2005, dated 2011).

Assays:
Type in all cases: biochemical
[1] = tested on: β-galactoside-α2,3-sialyltransferase from Photobacterium phosphoreum JT-ISH-467; assay: Determination of binding mode of sialic acid using pyridylaminated sugar chain, HPLC; conditions: acceptor 2.0 μM, CMP-NeuAc 5.7 μM, enzyme 20 mU/ml, pH 6.0, 25° C., 3 hours
Procedure: (§1) Using the enzyme obtained in Example 2, the enzymatic reaction was carried out using a pyridylaminated sugar chain as a glycosyl acceptor substrate. The pyridylaminated sugar chain used for analysis was pyridylaminated lactose (Galβ1-4Glc-PA, Takara Bio Inc., Japan). The glycosyl acceptor substrate, CMP-NeuAc and the enzyme were dissolved at 2.0 μM, 5.7 μM and 20 mU/ml, respectively, in 25 μl of 20 mM cacodylate buffer (pH 6.0), and then reacted at 25° C. for 3 hours. After the reaction, the reaction solution was treated at 100° C. for 2 minutes to inactivate the enzyme, followed by HPLC to analyze the reaction product.
The HPLC system used was Shimadzu LC10A (Shimadzu Corporation, Japan) and the analytical column used was Takara PALPAK Type R (Takara Bio Inc., Japan). The column which had been equilibrated with 100 mM acetate-triethylamine (pH 5.0) containing 0.15% N-butanol was injected with the reaction solution diluted with Eluent A (100 mM acetate-triethylamine, pH 5.0). […] The analysis was performed under the following conditions: flow rate: 1 ml/min, column temperature: 40° C., detection: fluorescence (Ex: 320 nm, Em: 400 nm).

[2] = Sialyltransferase activity in E. coli homogenate (crude enzyme solution), transfer of 14C-NeuAc from CMP-NeuAc to lactose; conditions: lactose acceptor; for Radioactivity (cpm) Average: average of duplicate; for Sialyltransferase activity in crude enzyme solution (in words): CMP-14C-NeuAc donor
Procedure: Sialyltransferase activity was measured as described in J. Biochem., 120, pp. 104-110 (1996) (which is hereby incorporated by reference in its entirety). More specifically, the enzymatic reaction was accomplished by using CMP-NeuAc (70 nmol, containing 25000 cpm CMP-NeuAc in which NeuAc was labeled with ^14C, 356 cpm/nmol; NeuAc represents N-acetylneuraminic acid) as a glycosyl donor substrate, lactose (1.25 μmol) as a glycosyl acceptor substrate, NaCl added to give a concentration of 0.5 M, and the enzyme-containing reaction solution (30 μl) prepared as described above. The enzymatic reaction was carried out at 25° C. for 10 to 30 minutes. After completion of the reaction, 1.97 ml of 5 mM phosphate buffer (pH 6.8) was added to the reaction solution, which was then applied to a Dowex 1×8 (PO4^3− form, 0.2×2 cm, BIO-RAD) column. The radioactivity was measured for the reaction product, i.e., sialyllactose contained in the eluate (0 to 2 ml) from this column to calculate the enzyme activity.
An induction experiment of protein expression was performed on the two 467-N0C0 clones and the three 467-N2C0 clones obtained in (4) above. A single colony of E. coli TB1 having the expression vector pTrc99A carrying each clone was inoculated into LB medium (5 ml) containing an antibiotic, ampicillin (final concentration 100 μg/mL), and pre-cultured at 30° C. to about A600=0.5, followed by addition of IPTG (isopropyl-β-D(−)-thiogalactopyranoside, Wako Pure Chemical Industries, Ltd. Japan) at a final concentration of 1 mM. After culturing with shaking at 30° C. for an additional 4 hours, the cells in 2 ml culture solution were collected by centrifugation. These cells were suspended in 200 μl of 20 mM BisTris buffer (pH 7.0) containing 0.336% Triton X-100 and 0.5 M sodium chloride, and ultrasonically homogenized under ice cooling. The resulting homogenate was defined as a crude enzyme solution and provided for activity measurement. The reaction was carried out in duplicate, and the reaction composition was the same as shown in Example 1, except that the reaction time was set to 15 hours.
In the same manner as shown in Example 5(5), an induction experiment of protein expression was performed on 2 clones, i.e., the first clone of ISH224-N0C0 and the first clone of ISH224-N1C0 to measure their enzyme activity.
In the same manner as shown in Example 5(5), an induction experiment of protein expression was performed on 3 clones, i.e., the first clone of FAJ-N0C0 as well as the first and second clones of FAJ-N1C0 to measure their enzyme activity.

[3] = Confirmation of α2,3 sialyltransferase activity of E. coli-expressed enzyme with pyridylaminated lactose, HPLC; conditions: pyridylaminated lactose 2.0 μM, CMP-sialic acid 5.7 μM, pH 6.0, 25° C., 6 hours
Procedure: as §1
The HPLC system used was Shimadzu LC10A (Shimadzu Corporation, Japan) and the analytical column used was Takara PALPAK Type R (Takara Bio Inc., Japan). The column which had been equilibrated with 100 mM acetate-triethylamine (pH 5.0) containing 0.15% N-butanol was injected with the reaction solution diluted with Eluent A (100 mM acetate-triethylamine, pH 5.0). For elution of the pyridylaminated sugar chain, Eluent A (100 mM acetate-triethylamine, pH 5.0) and Eluent B (100 mM acetate-triethylamine containing 0.5% n-butanol, pH 5.0) were used to successively elute the pyridylaminated sugar chain with a linear gradient of 30% to 100% Eluent B (0 to 35 minutes) and then 100% Eluent B (35 to 50 minutes). The analysis was performed under the following conditions: flow rate: 1 ml/min, column temperature: 40° C., detection: fluorescence (Ex: 320 nm, Em: 400 nm).
As in the case of Example 3, pyridylaminated lactose (Galβ1-4Glc-PA, PA-Sugar Chain 026, Takara Bio Inc., Japan) was used as a glycosyl acceptor to carry out the enzymatic reaction. After the reaction, the reaction solution was heated at 95° C. for 5 minutes to inactivate the enzyme, followed by HPLC analysis. It should be noted that the enzymatic reaction was accomplished at 25° C. for 6 hours using pyridylaminated lactose and CMP-sialic acid dissolved at 2.0 μM and 5.7 μM, respectively, in 25 μl of 20 mM cacodylate buffer (pH 6.0) (Reaction 1). On the other hand, a control experiment (Reaction 2) was carried out using a reaction solution free from CMP-sialic acid. Further, to clarify the retention time of standards, the crude enzyme solution was inactivated by thermal treatment (95° C., 5 minutes) and tested in the presence of pyridylaminated lactose and pyridylaminated α2,3-sialyllactose (pyridylaminated 3′-sialyllactose) (Neu5Acα2-3Galβ1-4Glc-PA, PA-Sugar Chain 029, Takara Bio Inc., Japan).

[4] = JT-ISH-467 gene clones, 25° C., reaction time 15 hours
[5] = JT-FAJ-16 gene clones, as Example 5(5)

## OC[C@@H](O)[C@@H](O[C@@H]1O[C@H](CO)[C@H](O)[C@H](O)[C@H]1O)[C@H](O)[C@@H](O)CNc1ccccn1 [PA-Sugar Chain 026, pyridylaminated lactose]
[1]
  Reaction product from pyridylaminated sugar chain (binding mode of sialic acid): pyridylaminated α2,3-sialyllactose (pyridylaminated 3′-sialyllactose) was synthesized

B1: ISH467-N0C0 first clone: E. coli-expressed full-length JT-ISH-467 sialyltransferase with Asn to Ser change at position 190 of SEQ ID NO: 2 (protein, listed as Photobacterium phosphoreum)
chain: MFVFCKKIFFLIFISLMILGGCNSDSKHNNSDGNITKNKTIEVYVDRATLPTIQQMTQIINENSNNKKLISWSRYPINDETLLESINGSFFKNRPELIKSLDSMILTNEIKKVIINGNTLWAVDVVNIIKSIEALGKKTEIELNFYDDGSAEYVRLYDFSRLPESEQEYKISLSKDNIQSSINGTQPFDSSIENIYGFSQLYPTTYHMLRADIFETNLPLTSLKRVISNNIKQMKWDYFTTFNSQQKNKFYNFTGFNPEKIKEQYKASPHENFIFIGTNSGTATAEQQIDILTEAKKPDSPIITNSIQGLDLFFKGHPSATYNQQIIDAHNMIEIYNKIPFEALIMTDALPDAVGGMGSSVFFSLPNTVENKFIFYKSDTDIENNALIQVMIELNIVNRNDVKLISDLQ
[2]; [4]
  Radioactivity (cpm) Round 1: 8496 cpm
  Radioactivity (cpm) Round 2: 7486 cpm
  Radioactivity (cpm) Average: 7991 cpm
[2]
  Sialyltransferase activity in crude enzyme solution (in words): sialyltransferase activity in both crude enzyme solutions
[3]
  α2,3 sialyltransferase activity (formation of pyridylaminated α2,3-sialyllactose): found to have α2,3 sialyltransferase activity

B2: ISH467-N2C0 first clone: JT-ISH-467 sialyltransferase lacking signal peptide region, Phe replaced by Ser at position 159 (protein, listed as Photobacterium phosphoreum)
chain: MFVFCKKIFFLIFISLMILGGCNSDSKHNNSDGNITKNKTIEVYVDRATLPTIQQMTQIINENSNNKKLISWSRYPINDETLLESINGSFFKNRPELIKSLDSMILTNEIKKVIINGNTLWAVDVVNIIKSIEALGKKTEIELNFYDDGSAEYVRLYDSSRLPESEQEYKISLSKDNIQSSINGTQPFDNSIENIYGFSQLYPTTYHMLRADIFETNLPLTSLKRVISNNIKQMKWDYFTTFNSQQKNKFYNFTGFNPEKIKEQYKASPHENFIFIGTNSGTATAEQQIDILTEAKKPDSPIITNSIQGLDLFFKGHPSATYNQQIIDAHNMIEIYNKIPFEALIMTDALPDAVGGMGSSVFFSLPNTVENKFIFYKSDTDIENNALIQVMIELNIVNRNDVKLISDLQ
modifications: lacks signal peptide; cited entry is nucleotide; CDS (1)..(1230) /gene=“467-23ST” /product=“Beta-galactoside- alpha 2,3-sialyltransferase”
[2]; [4]
  Radioactivity (cpm) Round 1: 10514 cpm
  Radioactivity (cpm) Round 2: 9033 cpm
  Radioactivity (cpm) Average: 9773.5 cpm
[2]
  Sialyltransferase activity in crude enzyme solution (in words): sialyltransferase activity was also observed
[3]
  α2,3 sialyltransferase activity (formation of pyridylaminated α2,3-sialyllactose): had α2,3 sialyltransferase activity

B3: ISH467-N0C0 second clone: E. coli-expressed full-length JT-ISH-467 sialyltransferase, nucleotide sequence of SEQ ID NO: 1, no change (protein, listed as Photobacterium phosphoreum)
chain: MFVFCKKIFFLIFISLMILGGCNSDSKHNNSDGNITKNKTIEVYVDRATLPTIQQMTQIINENSNNKKLISWSRYPINDETLLESINGSFFKNRPELIKSLDSMILTNEIKKVIINGNTLWAVDVVNIIKSIEALGKKTEIELNFYDDGSAEYVRLYDFSRLPESEQEYKISLSKDNIQSSINGTQPFDNSIENIYGFSQLYPTTYHMLRADIFETNLPLTSLKRVISNNIKQMKWDYFTTFNSQQKNKFYNFTGFNPEKIKEQYKASPHENFIFIGTNSGTATAEQQIDILTEAKKPDSPIITNSIQGLDLFFKGHPSATYNQQIIDAHNMIEIYNKIPFEALIMTDALPDAVGGMGSSVFFSLPNTVENKFIFYKSDTDIENNALIQVMIELNIVNRNDVKLISDLQ
modifications: CDS (1)..(1230) /gene=“467-23ST” /product=“Beta-galactoside- alpha 2,3-sialyltransferase”
[2]; [4]
  Radioactivity (cpm) Round 1: 7097 cpm
  Radioactivity (cpm) Round 2: 7809 cpm
  Radioactivity (cpm) Average: 7453 cpm
[2]
  Sialyltransferase activity in crude enzyme solution (in words): sialyltransferase activity in both crude enzyme solutions
[3]
  α2,3 sialyltransferase activity (formation of pyridylaminated α2,3-sialyllactose): found to have α2,3 sialyltransferase activity

B4: FAJ-N0C0 first clone: E. coli-expressed full-length JT-FAJ-16 sialyltransferase, nucleotides 1 to 1209 of SEQ ID NO: 30 (protein, listed as Vibrio sp.)
chain: MKNIITKRMLIILSSLFTIIGCNNDNSTTTNNNAIEIYVDRATLPTIQQMTKIVSQKTSNKKLISWSRYPITDKSLLKKINAEFFKEQFELTESLKNIILSENIDNLIIHGNTLWSIDVVDIIKEVNLLGKNIPIELHFYDDGSAEYVRIYEFSKLPESEQKYKTSLSKNNIKFSIDGTDSFKNTIENIYGFSQLYPTTYHMLRADIFDTTLKINPLRELLSNNIKQMKWDYFKDFNYKQKDIFYSLTNFNPKEIQEDFNKNSNKNFIFIGSNSATATAEEQINIISEAKKENSSIITNSISDYDLFFKGHPSATFNEQIINAHDMIEINNKIPFEALIMTGILPDAVGGMGSSVFFSIPKEVKNKFVFYKSGTDIENNSLIQVMLKLNLINRDNIKLISDI
modifications: CDS (1)..(1209) /gene=“FAJ16-23ST” /product=“Beta-galactoside- alpha 2,3-sialyltransferase”
[2]; [5]
  Radioactivity (cpm) Round 1: 11012 cpm
  Radioactivity (cpm) Round 2: 12056 cpm
  Radioactivity (cpm) Average: 11534 cpm
[2]
  Sialyltransferase activity in crude enzyme solution (in words): sialyltransferase activity was observed
[3]
  α2,3 sialyltransferase activity (formation of pyridylaminated α2,3-sialyllactose): a peak of pyridylaminated α2,3-sialyllactose (pyridylaminated 3′-sialyllactose) was detected
